Specific Activity: EC50 of the test compound based on EC50 of Metastin (45-54); agonist activity by change in intracellular calcium ion level (Fluo-4 NW, FLIPR) in receptor-expressing CHO cells data for two substances are collected here from patent publication US20110118172A1.

The assay has as its target metastin receptor (OT7T175) stably expressed on CHO cells. The assay is described as follows: cell-based or functional assay.

Consider “Compound No. 972: dimethylaminoethylureido-D-Tyr-Hyp-Asn-Thr-Phe-AzaGly-Leu-Arg(Me)-Trp-NH2 (peptide)”, for which the Specific Activity: EC50 of the test compound based on EC50 of Metastin (45-54); agonist activity by change in intracellular calcium ion level (Fluo-4 NW, FLIPR) in receptor-expressing CHO cells was 2.2. Consider “Compound No. 973: iso-butylureido-D-Tyr-Hyp-Asn-Thr-Phe-AzaGly-Leu-Arg(Me)-Trp-NH2 (peptide)”, for which the Specific Activity: EC50 of the test compound based on EC50 of Metastin (45-54); agonist activity by change in intracellular calcium ion level (Fluo-4 NW, FLIPR) in receptor-expressing CHO cells came to 0.4.
